# Key:
# hNotch1 = test: Notch signaling assay using multiple ligand-presentation formats (U2OS hNotch1-Gal4 luciferase); assay type: cell-based, human
# Method: Notch activation was assayed in different formats (FIG. 14A) including (1) non-specific orientation (0.1 ng/mm^2 of Delta^MAX on well, FIG. 3A), (2) ligand-oriented coupling (10 nM of Delta^MAX on well, FIG. 3B), (3) magnetic beads coated with biotinylated Delta^MAX (ratio 1:20 reporter cells:beads, optimization of ratio is detailed in FIG. 14D), (4) HEK293T-expressing Delta^MAX (ratio 1:1, signal receivers:senders, optimization of ratio can be seen in FIG. 14C), and (5) yeast-expressing Delta^MAX (ratio 1:10, reporter:yeast, optimization of ratio is detailed in FIG. 14B). On day one, U2OS hNotch1-Gal4 cells were detached with trypsin-EDTA, counted in the microscope, and 5×10E5 cells/well transferred to 6-well tissue culture plates (Falcon). On day two, U2OS cells were transfected as described above. On day three, the different activation assays were set up at the same time. For ligand oriented-coupling, streptavidin plates were coated with 10 nM of Delta^MAX as described above. For non-specific adsorption, non-biotinylated Delta^MAX at 0.1 ng/mm was coated as described previously. For activation using streptavidin beads coated with biotinylated Delta^MAX, 200 mg of streptavidin beads (streptavidin MagneSphere paramagnetic particles, Promega) were washed 3 times with 200 μL of DPBS+0.1% BSA using a magnet (Miltenyi), and combined with 20 μg of biotinylated Delta^MAX for 1.5 hours at 4° C. Next, unbound Delta^MAX was washed out three times with 200 μL of DPBS+0.1% BSA, and 100 μL of complexed beads (pre-diluted 1/25 in DPBS) were added to wells. For co-culture activation with HEK293T-expressing Delta^MAX, cells were detached with trypsin-EDTA, quenched with DMEM media, washed with DPBS, and 100 μL containing 20,000 cells in DMEM were added to wells. For activation with yeast cells expressing Delta^MAX on surface, pYAL vector encoding for Delta^MAX (N-EGF5) was electroporated previously into yeast cells, and DLL4 expressed in SGCAA as previously described. Delta^MAX expression was induced 48 hours before Notch activation assay set up. One hundred microliters of yeast cells (2×10E6 cells/mL) in serum-free DMEM were added to the assay plate. Once all the wells contained the desired activation assays, U2OS reporter cells were detached with trypsin-EDTA, and 20,000 cells in 100 μL of DMEM were added per well. All the conditions were supplemented with 2 μg/mL of doxycycline to induce Notch1-Gal4 expression. The assay plate was incubated for 24 hours at 37° C. and 5% CO2. On day four, media was aspirated off and Luciferase Dual-Glo kit (Promega) used to detect firefly and Renilla signals in a luminometer (GloMax, Promega). Negative controls were BSA 0.5% for non-specific adsorption, streptavidin and BSA 2% for ligand oriented-coupling, uncoated streptavidin beads for activation with magnetic beads, HEK293T non-expressing DLL4 for co-culture activation, and yeast expressing PDL-1 ECD for co-culture with yeast. The expression of Delta^MAX in HEK293T and yeast cells was confirmed by flow cytometry (BD Accuri C6 plus) following staining for 1 hour at 4° C. with anti-hDLL4 PE antibody using DPBS+0.5% BSA, and selection buffer, respectively (FIG. 14E). Notch activation is represented as the mean fold-change over the corresponding control±s.d. of three independent biological replicates.
# Notch1 [1] = target: T1, Notch1 (Homo sapiens, UniProt P46531); test: Immunoblot of cleaved Notch1 in CD8+ T cells; assay type: cell-based; conditions: CD8+ T cells after 96 hours with K32 cells
# Chain of Notch1 (P46531 19-1664 limits assumed): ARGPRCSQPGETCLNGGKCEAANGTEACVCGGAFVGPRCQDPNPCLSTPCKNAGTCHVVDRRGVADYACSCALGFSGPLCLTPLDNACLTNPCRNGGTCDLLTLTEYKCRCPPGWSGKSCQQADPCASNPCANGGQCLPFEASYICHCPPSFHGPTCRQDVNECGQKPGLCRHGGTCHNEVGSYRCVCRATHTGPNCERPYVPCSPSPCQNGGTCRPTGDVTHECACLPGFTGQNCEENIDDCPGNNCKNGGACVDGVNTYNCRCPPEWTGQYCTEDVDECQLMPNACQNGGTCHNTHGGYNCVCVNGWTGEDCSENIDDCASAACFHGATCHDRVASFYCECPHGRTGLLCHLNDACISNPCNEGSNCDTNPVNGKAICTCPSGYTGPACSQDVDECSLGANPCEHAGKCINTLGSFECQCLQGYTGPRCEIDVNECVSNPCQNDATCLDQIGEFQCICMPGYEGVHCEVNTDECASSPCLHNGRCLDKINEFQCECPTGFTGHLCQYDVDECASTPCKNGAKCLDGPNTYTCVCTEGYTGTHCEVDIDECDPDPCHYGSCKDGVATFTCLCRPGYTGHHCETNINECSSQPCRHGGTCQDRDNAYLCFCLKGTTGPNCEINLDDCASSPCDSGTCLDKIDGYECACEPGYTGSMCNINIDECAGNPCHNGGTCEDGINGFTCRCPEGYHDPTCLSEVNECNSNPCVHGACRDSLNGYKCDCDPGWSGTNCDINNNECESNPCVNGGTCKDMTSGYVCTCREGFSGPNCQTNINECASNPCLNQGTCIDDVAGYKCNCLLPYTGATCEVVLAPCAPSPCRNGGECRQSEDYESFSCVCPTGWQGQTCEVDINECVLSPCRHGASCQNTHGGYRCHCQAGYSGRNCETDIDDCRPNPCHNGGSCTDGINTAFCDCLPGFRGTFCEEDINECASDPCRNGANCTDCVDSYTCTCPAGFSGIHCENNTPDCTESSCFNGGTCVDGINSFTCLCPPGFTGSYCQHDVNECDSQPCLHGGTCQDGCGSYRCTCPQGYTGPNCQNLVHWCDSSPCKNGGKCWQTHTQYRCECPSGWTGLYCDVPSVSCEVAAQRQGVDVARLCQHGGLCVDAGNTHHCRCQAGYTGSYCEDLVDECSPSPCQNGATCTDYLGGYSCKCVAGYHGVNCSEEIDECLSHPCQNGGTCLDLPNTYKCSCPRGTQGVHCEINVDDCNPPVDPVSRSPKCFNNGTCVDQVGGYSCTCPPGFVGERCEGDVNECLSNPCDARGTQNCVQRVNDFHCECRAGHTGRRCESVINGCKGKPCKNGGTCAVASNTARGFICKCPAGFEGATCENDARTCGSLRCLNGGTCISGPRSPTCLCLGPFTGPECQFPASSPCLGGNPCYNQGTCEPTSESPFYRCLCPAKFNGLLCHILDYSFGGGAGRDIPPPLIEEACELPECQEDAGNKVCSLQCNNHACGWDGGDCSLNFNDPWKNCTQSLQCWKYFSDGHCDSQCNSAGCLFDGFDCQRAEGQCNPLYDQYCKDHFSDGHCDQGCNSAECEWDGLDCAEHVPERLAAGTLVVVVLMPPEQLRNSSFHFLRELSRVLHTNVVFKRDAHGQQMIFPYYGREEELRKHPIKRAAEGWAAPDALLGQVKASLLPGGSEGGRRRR
# Chain of Notch1 (P46531 1665-1756 limits assumed): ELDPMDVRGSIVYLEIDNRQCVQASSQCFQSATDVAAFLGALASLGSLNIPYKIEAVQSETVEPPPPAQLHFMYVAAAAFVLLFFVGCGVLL
# T1 construct: endogenous in cells; host or cells: primary human CD8+ T cells from PBMC
# T1 sequence (P46531 19-2555): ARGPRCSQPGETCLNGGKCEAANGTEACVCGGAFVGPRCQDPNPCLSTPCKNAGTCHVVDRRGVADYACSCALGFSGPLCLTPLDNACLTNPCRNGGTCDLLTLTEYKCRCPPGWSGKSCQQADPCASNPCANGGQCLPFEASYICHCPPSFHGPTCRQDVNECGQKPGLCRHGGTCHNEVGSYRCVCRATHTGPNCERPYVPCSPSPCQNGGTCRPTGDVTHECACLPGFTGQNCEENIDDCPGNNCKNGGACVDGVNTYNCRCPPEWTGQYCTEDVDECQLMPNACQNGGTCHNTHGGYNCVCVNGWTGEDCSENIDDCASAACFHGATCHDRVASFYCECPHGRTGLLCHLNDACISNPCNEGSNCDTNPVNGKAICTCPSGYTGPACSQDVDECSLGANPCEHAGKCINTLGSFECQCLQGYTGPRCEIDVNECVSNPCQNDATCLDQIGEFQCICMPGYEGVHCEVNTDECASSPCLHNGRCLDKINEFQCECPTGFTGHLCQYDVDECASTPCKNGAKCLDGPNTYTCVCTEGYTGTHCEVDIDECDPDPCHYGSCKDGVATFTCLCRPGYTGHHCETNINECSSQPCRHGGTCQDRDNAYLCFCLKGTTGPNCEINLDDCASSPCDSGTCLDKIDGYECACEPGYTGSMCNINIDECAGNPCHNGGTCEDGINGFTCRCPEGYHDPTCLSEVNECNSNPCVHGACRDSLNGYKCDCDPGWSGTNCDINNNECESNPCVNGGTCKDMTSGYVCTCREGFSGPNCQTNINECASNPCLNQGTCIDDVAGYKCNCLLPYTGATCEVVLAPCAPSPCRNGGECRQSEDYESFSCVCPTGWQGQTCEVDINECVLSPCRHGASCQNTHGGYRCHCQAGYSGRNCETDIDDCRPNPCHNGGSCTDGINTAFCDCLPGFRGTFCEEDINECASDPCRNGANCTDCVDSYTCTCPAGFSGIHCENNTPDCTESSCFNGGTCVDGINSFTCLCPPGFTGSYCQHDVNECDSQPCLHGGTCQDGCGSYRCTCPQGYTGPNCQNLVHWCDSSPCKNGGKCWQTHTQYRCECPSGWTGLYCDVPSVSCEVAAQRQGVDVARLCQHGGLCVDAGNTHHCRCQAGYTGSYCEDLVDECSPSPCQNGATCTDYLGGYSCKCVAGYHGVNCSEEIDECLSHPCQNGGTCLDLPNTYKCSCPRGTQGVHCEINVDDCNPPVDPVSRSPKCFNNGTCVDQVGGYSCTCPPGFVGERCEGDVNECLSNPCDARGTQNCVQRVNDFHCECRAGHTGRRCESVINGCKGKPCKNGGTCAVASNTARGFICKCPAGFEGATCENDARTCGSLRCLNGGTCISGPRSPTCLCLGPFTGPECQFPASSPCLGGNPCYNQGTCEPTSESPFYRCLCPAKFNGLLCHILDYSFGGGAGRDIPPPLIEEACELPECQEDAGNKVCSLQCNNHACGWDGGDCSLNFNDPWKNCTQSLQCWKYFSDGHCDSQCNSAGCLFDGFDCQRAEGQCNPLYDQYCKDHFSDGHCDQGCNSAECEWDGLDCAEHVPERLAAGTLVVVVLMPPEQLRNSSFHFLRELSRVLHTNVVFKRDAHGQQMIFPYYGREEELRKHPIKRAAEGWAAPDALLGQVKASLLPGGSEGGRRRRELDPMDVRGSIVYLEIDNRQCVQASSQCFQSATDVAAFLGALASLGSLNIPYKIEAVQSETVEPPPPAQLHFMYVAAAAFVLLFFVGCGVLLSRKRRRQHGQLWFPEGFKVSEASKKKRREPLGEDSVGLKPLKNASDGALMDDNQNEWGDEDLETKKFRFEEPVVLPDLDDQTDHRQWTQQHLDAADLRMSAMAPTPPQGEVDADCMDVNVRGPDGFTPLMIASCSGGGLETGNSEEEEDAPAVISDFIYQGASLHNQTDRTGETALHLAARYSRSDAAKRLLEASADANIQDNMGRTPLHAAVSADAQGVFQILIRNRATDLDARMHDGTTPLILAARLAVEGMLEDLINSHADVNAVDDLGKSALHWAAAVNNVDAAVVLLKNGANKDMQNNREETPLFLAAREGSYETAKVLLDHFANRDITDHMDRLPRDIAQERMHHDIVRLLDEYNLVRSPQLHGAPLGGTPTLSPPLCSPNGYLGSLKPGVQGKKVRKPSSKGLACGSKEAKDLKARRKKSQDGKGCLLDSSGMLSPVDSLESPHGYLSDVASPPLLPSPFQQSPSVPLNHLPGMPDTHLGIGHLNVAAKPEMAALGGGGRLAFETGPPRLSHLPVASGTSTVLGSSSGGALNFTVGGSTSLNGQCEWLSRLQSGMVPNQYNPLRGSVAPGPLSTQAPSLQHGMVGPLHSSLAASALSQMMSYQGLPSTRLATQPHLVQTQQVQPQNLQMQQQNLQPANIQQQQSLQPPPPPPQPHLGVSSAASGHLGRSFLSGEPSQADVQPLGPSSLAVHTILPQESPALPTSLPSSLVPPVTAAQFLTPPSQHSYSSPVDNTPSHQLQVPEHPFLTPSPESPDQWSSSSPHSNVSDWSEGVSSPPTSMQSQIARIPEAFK
# Description: (§1) For detection of Notch activation in CD8^+ T cells, following co-culture with K32 cell lines, CD8^+ T cells were positively enriched by Magnisort Human CD8^+ T cell positive selection Kit (Invitrogen). Nuclear fraction was isolated using NE-PER Nuclear and Cytoplasmic extraction kit (ThermoFisher). Equal protein amounts of nuclear cell lysates were run on 4-20% gradient Tris-glycine gels (Novex-Invitrogen), transferred to PVDF membranes using an iBlot Gel Transfer Device (ThermoFisher), and immunoblotted with antibodies anti-cleaved Notch1 (Val1744 rabbit mAb, Cell Signaling Technology, 1:1,000), anti-Notch2 (D76A6 rabbit mAb, Cell Signaling Technology, 1:1,000), and anti-β Actin (mouse mAb, Sigma, 1:20,000). Secondary antibodies anti-IgG (anti-rabbit or anti-mouse, GE Healthcare, 1:5,000) conjugated to horseradish peroxidase (HRP) were used for detection of proteins using ECL Western Blot Substrate Reagent (Thermo Fisher Scientific). Images were acquired using a Chemidoc Imaging System and analyzed with Image-Lab software (Bio-Rad).
# Notch2 [2] = test: U2OS luciferase reporter assay, ligands on streptavidin plates; assay type: cell-based, human; conditions: 50 nM immobilized
# Chain of Notch2 (Q04721 221-530 limits assumed): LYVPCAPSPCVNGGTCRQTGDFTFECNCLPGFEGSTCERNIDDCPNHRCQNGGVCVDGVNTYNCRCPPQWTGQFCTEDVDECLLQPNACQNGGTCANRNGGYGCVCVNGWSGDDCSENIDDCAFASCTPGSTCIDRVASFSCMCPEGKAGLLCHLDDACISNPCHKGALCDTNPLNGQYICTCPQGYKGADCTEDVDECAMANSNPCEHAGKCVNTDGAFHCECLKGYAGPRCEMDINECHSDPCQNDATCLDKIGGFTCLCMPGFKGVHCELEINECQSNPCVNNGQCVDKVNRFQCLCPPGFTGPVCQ
# Method: (§2) For U2OS reporter cells, approximately 5×10E5 cells were plated into 6-well plates (Falcon) and let to adhere overnight at 37° C., 5% CO2 in DMEM media (Cytiva). On day two, media was replaced with serum-free DMEM and cells transfected with luciferase vectors. Cationic lipoplexes were generated for 15 min at room temperature by mixing 10 μL of Lipofectamine 2000 (Invitrogen), 2.5 μg of Gal4-firefly luciferase reporter, and 50 ng of pRL-TK Renilla luciferase vector as internal control (ratio 1:5, Lipo:DNA). On day three, streptavidin plates were coupled with DLL4 ligands like described above using 10-fold serial dilutions starting at 50 nM, and transfected U2OS cells were detached with Trypsin-EDTA, washed with DPBS, and counted in the microscope. Twenty-thousand reporter cells were added to wells using 200 μL of DMEM media containing 2 μg/mL of doxycycline (Sigma) to induce Notch-Gal4 expression. Next, signaling plates were incubated for 24 hours at 37° C. and 5% CO2. On day four, luciferase firefly and Renilla signals were determined with Dual-Glo luciferase assay system (Promega) using a GloMax luminometer (Promega). A luminescence ratio firefly:Renilla was determined for every well and normalized to the signal of a non-related control protein (PA domain of RNF128). Notch activation is represented as the mean fold-change over the control±s.d. of three independent biological replicates.
# Notch1 [3] = test: as above; assay type: cell-based, human; conditions: 50 nM immobilized
# Method: as §2
# Notch2 [4] = target: T2, Notch2 (Homo sapiens, UniProt Q04721); test: Immunoblot of cleaved Notch2 in CD8+ T cells; assay type: cell-based; conditions: CD8+ T cells after 96 hours with K32 cells
# T2 construct: endogenous in cells; host or cells: primary human CD8+ T cells from PBMC
# Description: as §1
# Chain of hNotch1 (P46531 19-1664 limits assumed): as the sequence (P46531 19-1664 limits assumed) above
# Chain of hNotch1 (P46531 1665-1756 limits assumed): as the sequence (P46531 1665-1756 limits assumed) above
molecule,measurement,setting,value
Delta^MAX: engineered human DLL4 consensus variant with 10 mutations combining DLL4.v1 and DLL4.v2 mutations; sequence matches SEQ ID NO: 4/10 (protein) SSVFQLQLQEFINERGVLASGRPCEPGCRTFFRVCLKHFQAVVSPGPCTFGTVSTPVLGTNSFAVRDDSSGGGRNPLQLPLNFTWPGTFSLIIEAWHAPGDDLRPEALPPDALISKFAIQGSLAVGQNWLLDEQTSTLTRLRYSYRVICSDNYYGDNCSRLCKKRNDYFGHYVCQPDGNPSCLPGWTGEYCQQPICLSGCHEQNGYCSKPAECLCRPGWQGRLCNECIPHPGCRHGTCSTPWQCLCDEGWGGLYCDQDLNYCTHHSPCKNGATCRNSGPRSYTCTCRPGYTGVDCELELSECDSNPCRNGGSCKDQEDGYHCLCPPGYYGLHCEHSTLSCADSPCFNGGSCRERNQGANYACECPPNFTGSNCE,increase in Notch1 activation relative to controls,"hNotch1; co-culture with HEK293T expressing ligand, ratio 1:1",15 fold
same,increase in Notch1 activation relative to controls,"hNotch1; ligand-coated streptavidin magnetic beads, ratio 1:20 reporter cells:beads",21 fold
same,increase in Notch1 activation relative to controls,"hNotch1; non-specific adsorption, 0.1 ng/mm^2",23 fold
same,increase in Notch1 activation relative to controls,"hNotch1; oriented coupling on streptavidin plates, 10 nM",50 fold
same,Notch1 activation relative to controls,"hNotch1; yeast-displayed, ratio 1:10 reporter:yeast",did not induce a significant change
same,Notch1 activation (cleaved ICD) relative to WT DLL4,Notch1 [1],increased
same,increase in Notch2 signaling vs WT DLL4,Notch2 [2],2.5 fold
same,increase in Notch1 signaling vs WT DLL4,Notch1 [3],2 fold
same,Notch2 activation (cleaved ICD) relative to WT DLL4,Notch2 [4],increased
